{"source": "paper PMC11407943", "about": "“Cdc14 phosphatases use an intramolecular pseudosubstrate motif to stimulate and regulate catalysis” (The Journal of Biological Chemistry, 2024)", "molecules": {"B1": {"name": "ScCdc14^1-449: truncation of S. cerevisiae Cdc14 that retains the SLiCE motif (protein)", "chain": "MRRSVYLDNTIEFLRGRVYLGAYDYTPEDTDELVFFTVEDAIFYNSFHLDFGPMNIGHLYRFAVIFHEILNDPENANKAVVFYSSASTRQRANAACMLCCYMILVQAWTPHQVLQPLAQVDPPFMPFRDAGYSNADFEITIQDVVYGVWRAKEKGLIDLHSFNLESYEKYEHVEFGDFNVLTPDFIAFASPQEDHPKGYLATKSSHLNQPFKSVLNFFANNNVQLVVRLNSHLYNKKHFEDIGIQHLDLIFEDGTCPDLSIVKNFVGAAETIIKRGGKIAVHCKAGLGRTGCLIGAHLIYTYGFTANECIGFLRFIRPGMVVGPQQHWLYLHQNDFREWKYTTRISLKPSEAIGGLYPLISLEEYRLQKKKLKDDKRVAQNNIEGELRDLTMTPPSNGHGALSARNSSQPSTANNGSNSFKSSAVPQTSPGQPRKGQNGSNTIEDINNN", "modifications": "left off: 6xHis, N-terminal, state not stated"}, "B2": {"name": "ScCdc14^P433A/K435A: SLiCE motif point mutant generated in ScCdc14^1-449 (protein)", "chain": "B1 chain with P433A, K435A", "modifications": "left off: 6xHis, N-terminal, state not stated"}, "B3": {"name": "ScCdc14^1-374: catalytic domain alone lacking the SLiCE motif (protein)", "chain": "MRRSVYLDNTIEFLRGRVYLGAYDYTPEDTDELVFFTVEDAIFYNSFHLDFGPMNIGHLYRFAVIFHEILNDPENANKAVVFYSSASTRQRANAACMLCCYMILVQAWTPHQVLQPLAQVDPPFMPFRDAGYSNADFEITIQDVVYGVWRAKEKGLIDLHSFNLESYEKYEHVEFGDFNVLTPDFIAFASPQEDHPKGYLATKSSHLNQPFKSVLNFFANNNVQLVVRLNSHLYNKKHFEDIGIQHLDLIFEDGTCPDLSIVKNFVGAAETIIKRGGKIAVHCKAGLGRTGCLIGAHLIYTYGFTANECIGFLRFIRPGMVVGPQQHWLYLHQNDFREWKYTTRISLKPSEAIGGLYPLISLEEYRLQKKKLKD", "modifications": "left off: 6xHis, N-terminal, state not stated"}, "B4": {"name": "ScCdc14^S429E (protein, UniProt Q00684 1-551, looked up, variant S429E)", "Tyrosine-protein phosphatase …": "MRRSVYLDNTIEFLRGRVYLGAYDYTPEDTDELVFFTVEDAIFYNSFHLDFGPMNIGHLYRFAVIFHEILNDPENANKAVVFYSSASTRQRANAACMLCCYMILVQAWTPHQVLQPLAQVDPPFMPFRDAGYSNADFEITIQDVVYGVWRAKEKGLIDLHSFNLESYEKYEHVEFGDFNVLTPDFIAFASPQEDHPKGYLATKSSHLNQPFKSVLNFFANNNVQLVVRLNSHLYNKKHFEDIGIQHLDLIFEDGTCPDLSIVKNFVGAAETIIKRGGKIAVHCKAGLGRTGCLIGAHLIYTYGFTANECIGFLRFIRPGMVVGPQQHWLYLHQNDFREWKYTTRISLKPSEAIGGLYPLISLEEYRLQKKKLKDDKRVAQNNIEGELRDLTMTPPSNGHGALSARNSSQPSTANNGSNSFKSSAVPQTEPGQPRKGQNGSNTIEDINNNRNPTSHANRKVVIESNNSDDESMQDTNGTSNHYPKVSRKKNDISSASSSRMEDNEPSATNINNAADDTILRQLLPKNRRVTSGRRTTSAAGGIRKISGSIKK"}}, "key": {"[1]": {"test": "Steady-state kinetics of Cdc14 enzyme variants toward DiFMUP", "protocol": "B, initial velocities as a function of increasing DiFMUP concentration were measured under steady-state conditions for the indicated ScCdc14 variants. […] Data are average values from at least three independent measurements. Error bars are SDs. Lines are best fits for the Michaelis–Menten equation. C, to better visualize differences in KM, all Vmax values from data in panel A were normalized to 1. D, top: the general PTP-catalyzed reaction scheme with associated rate constants ([50]), where E is enzyme, S is phosphorylated substrate, P is dephosphorylated product, Pi is inorganic phosphate, and E-Pi is the covalent phosphoenzyme intermediate. For simplicity, the reverse catalytic steps are omitted and considered negligible under our experimental conditions. Bottom: definitions of kcat and KM for enzymes following the two step PTP reaction mechanism ([47]). E, a representative presteady-state reaction progress graph for reaction of the indicated ScCdc14 enzyme variants with 200 μM DiFMUP, measured in a stopped flow spectrofluorometer. Data were fit with Equation 1 (see Experimental procedures) to generate rates of the burst phase (kburst) of the reaction. F, kburst was plotted as a function of substrate concentration from presteady-state kinetic measurements with the substrate DiFMUP and the indicated ScCdc14 enzyme variants. Data are averages of three independent measurements and error bars are SDs. Data were fit in GraphPad Prism with Equation 2 (Experimental procedures).\nD–E, steady-state kinetic analyses with hCdc14A enzyme variants toward DiFMUP as in Figure 2, B and C. […] In E, Vmax values from data in panel D were normalized to 1 to show differences in KM.\nData from velocity versus substrate concentration plots were fit with the Michaelis–Menten equation in GraphPad Prism (https://www.graphpad.com/) to determine steady-state kinetic parameters kcat and KM. For trans peptide stimulation assays, DiFMUP was used at a single concentration well above the measured KM for each enzyme."}, "[2]": {"test": "Catalytic efficiency (kcat/KM) on pooled phosphopeptides by LC-MS", "settings": "375 nM each pooled phosphopeptide, 30 °C, 10 to 40 min; for catalytic efficiency (kcat/KM) for high affinity substrates: enzyme 0.1–1 μM, at least four independent measurements", "protocol": "Cdc14 catalytic efficiencies toward a pooled set of phosphopeptide variants were measured by LC-MS exactly as described ([49]). […] Reactions were initiated by addition of Cdc14 enzymes (0.1–1 μM final concentration) in 200 μl Cdc14 reaction buffer and incubated at 30 °C for 10 to 40 min 60 μl aliquots were removed and mixed with an equal volume 5% formic acid at desired times to terminate the reactions. Peptides were desalted on C18 spin columns (Thermo Fisher Scientific) and dried by vacuum centrifugation prior to LC-MS analysis on an LTQ Orbitrap Velos mass spectrometer. Extracted ion chromatograms for each substrate and product peptide were generated and integrated using Skyline software ([65]) (https://skyline.ms/project/home/begin.view) and catalytic efficiency calculations from the data were performed as described ([28], [47])."}, "[3]": {"settings": "cited from earlier work", "quoted_text": "To experimentally characterize the SLiCE motif mechanism, we expressed and purified several recombinant ScCdc14 enzyme variants (Figs. 2A and S2A)."}, "[4]": {"test": "Presteady-state (stopped-flow) kinetics of Cdc14 enzyme variants with DiFMUP", "type": "biochemical", "settings": "23 °C, 200 μM DiFMUP in representative ScCdc14 progress curve, compared to ScCdc14^1-449", "description": "SLiCE motif is boxed in gray.\nPresteady-state kinetic analysis was performed as described previously ([34]). Enzymes were exchanged into Cdc14 reaction buffer using a desalting column and flash-frozen in liquid nitrogen. Prior to use, aliquots were thawed and clarified at 16,000g for 5 min to remove any insoluble material and protein concentration was subsequently determined by Bradford assay. Presteady-state measurements were made by mixing enzyme and varying DiFMUP concentrations at 23 °C on an SFM-3000 stopped-flow instrument equipped with a MOS-200/M spectrophotometer (BioLogic) as described ([64]). The excitation wavelength was 390-nm and emission was selected using a 409-nm long pass filter (Semrock FF02-409/LP-25). A standard curve was generated by measuring the fluorescence of defined concentrations of the product DiFMU reconstituted in Cdc14 reaction buffer under identical conditions. Raw data were fit with Equation 1 in Prism:(1) Y=At+B(1−e^−bt)+C"}, "[5]": {"settings": "DiFMUP, pH 7.5, 30 °C, S429 phosphosite mutant series, printed \"(Fig. 6)\" for ScCdc141-449"}}, "note": "Substitutions are numbered along the chain they refer to. Names and notes keep the numbering of the source."}
{"molecule": "B1", "values": [{"measurement": "kcat", "setting": "[1]; [5]", "value": "1.71 ± 0.24", "unit": "s⁻¹"}, {"measurement": "catalytic efficiency (kcat/KM) for high affinity substrates", "setting": "[2]", "value": "indistinguishable"}, {"measurement": "activity compared with full-length ScCdc14", "setting": "[3]", "value": "indistinguishable from full-length ScCdc14"}]}
{"molecule": "B2", "values": [{"measurement": "kcat", "setting": "[1]; pH 7.5", "value": "0.27 ± 0.03", "unit": "s⁻¹"}, {"measurement": "catalytic efficiency (kcat/KM) for low affinity substrates", "setting": "[2]; compared to ScCdc14^1-449", "value": "modest, but consistent and statistically significant, increase in catalytic efficiency"}, {"measurement": "catalytic efficiency (kcat/KM) for high affinity substrates", "setting": "[2]", "value": "indistinguishable"}, {"measurement": "postburst linear rate (primarily reflecting k3)", "setting": "[4]", "value": "greatly reduced"}]}
{"molecule": "B3", "values": [{"measurement": "decrease in kcat compared to ScCdc14^1-449", "setting": "[1]; DiFMUP, steady state", "value": 16, "unit": "fold"}]}
{"molecule": "B4", "values": [{"measurement": "kcat", "setting": "[1]; [5]", "value": "0.15 ± 0.01", "unit": "s⁻¹"}]}
